Laboratory results taken from patent publication US20230141630.
Like-named read-outs stand apart in the source and are kept apart here.

Tests used:
[1] = tested on: Group II Intron-RT (unspecified); conditions: 1 h at 55 C, Induro buffer, 1 ug circRNA, 100 ng RT
[2] = tested on: Induro RT (Group II Intron-RT); conditions: 5'-phosphate primer; 50 C 30 min, 10 mM DTT; peak cDNA 7.2 kb
[3] = tested on: Induro RT (Group II Intron-RT); conditions: [none]; 38 C 5 min then 60 C 30 min

Q: “AAAATCCGTTGACCTTAAACGGTCGTGTGGGTTCAAGTCCCTCCACCCCCACGCCGGAAACGCAATAGCCGAAAAACAAAAAACAAAAAAACCCCCCTCTCCCTCCCCCCCTAACGTTACTGGCCGAAGCCGCTTGGAATAAGGCCGGTGTGCGTTTGTCTATATGTTATTTTCCACCATATTGCCGTCTTTTGGCAATGTGAGGGCCCGGAAACCTGGCCCTGTCTTCTTGACGAGCATTCCTAGGGGTCTTTCCCCTCTCGCCAAAGGAATGCAAGGTCTGTTGAATGTCGTAAAAAAACAAAAAACAAAACGGCTATTATGCGTTACCGGCGAGACGCTACGGACTT / TCCAGAGGAACTGCTTCCTTC [circRNA 0.4 kb with DNA primer]” was tested. Which activity [1] did it give?
A: Its activity is 4.5 µg cDNA.

Q: How did the activity (copies per cDNA) [2] turn out when “GGATTCTAAAACGGATTACCAGGGATTTCAGTCGATGTACACGTTCGTCACATCTCATCTACCTCCCGGTTTTAATGAATACGATTTTGTACCAGAGTCCTTTGATCGTGACAAAACAATTGCACTGATAATGAATTCCTCTGGATCTACTGGGTTACCTAAGGGTGTGGCCCTTCCGCATAGAACTGCCTGCGTCAGATTCTCGCATGCCAGAGATCCTATTTTTGGCAATCAAATCATTCCGGATACTGCGATTTTAAGTGTTGTTCCATTCCATCACGGTTTTGGAATGTTTACTACACTCGGATATTTGATATGTGGATTTCGAGTCGTCTTAATGTATAGATTTGAAGAAGAGCTGTTTTTACGATCCCTTCAGGATTACAAAATTCAAAGTGCGTTGCTAGTACCAACCCTATTTTCATTCTTCGCCAAAAGCACTCTGATTGACAAATACGATTTATCTAATTTACACGAAATTGCTTCTGGGGGCGCACCTCTTTCGAAAGAAGTCGGGGAAGCGGTTGCAAAACGCTTCCATCTTCCAGGGATACGACAAGGATATGGGCTCACTGAGACTACATCAGCTATTCTGATTACACCCGAGGGGGATGATAAACCGGGCGCGGTCGGTAAAGTTGTTCCATTTTTTGAAGCGAAGGTTGTGGATCTGGATACCGGGAAAACGCTGGGCGTTAATCAGAGAGGCGAATTATGTGTCAGAGGACCTATGATTATGTCCGGTTATGTAAACAATCCGGAAGCGACCAACGCCTTGATTGACAAGGATGGATGGCTACATTCTGGAGACATAGCTTACTGGGACGAAGACGAACACTTCTTCATAGTTGACCGCTTGAAGTCTTTAATTAAATACAAAGGATATCAGGTGGCCCCCGCTGAATTGGAATCGATATTGTTACAACACCCCAACATCTTCGACGCGGGCGTGGCAGGTCTTCCCGACGATGACGCCGGTGAACTTCCCGCCGCCGTTGTTGTTTTGGAGCACGGAAAGACGATGACGGAAAAAGAGATCGTGGATTACGTCGCCAGTCAAGTAACAACCGCGAAAAAGTTGCGCGGAGGAGTTGTGTTTGTGGACGAAGTACCGAAAGGTCTTACCGGAAAACTCGACGCAAGAAAAATCAGAGAGATCCTCATAAAGGCCAAGAAGGGCGGAAAGTCCAAACTCGAGTAAGGTTAACCTGCAGGGAAAAAACAAAAAACAAAACGGCTATTATGCGTTACCGGCGAGACGCTACGGACTT / ACTTGCCTGTCGCTCTATCTTCTTTGTTTTTTCCCTGCAGGTTAACCTTACTC [circRNA 1.8 kb with RT primer]” was run?
A: Its activity (copies per cDNA) is 4.

Q: With “UGAGGUAGUAGGUUGUAUAGUUUACUGACCAGGACGACGACA / TGTCGTCGTCCTGGTCAGTA [42 nt circularized small RNA with RT primer]” as the sequence, how does the activity (copies per cDNA) [3] read?
A: Its activity (copies per cDNA) is greater than 100.
